From patent US20260167699A1 (Chugai, published 2026)

Each binder was assayed against T1, FcγRIIIa (human, UniProt P08637 17-208) (assay: SPR (Biacore);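 also: antibody variants captured on an SPR sensor chip, with FcγRIIIa passed over as analyte in HBS-EP+ buffer at 25 °C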).
T1 construct: extracellular domain; also called 3a; FcγRIIIa extracellular domain
T1 sequence (P08637 other isoform, or with tags, fused parts or gaps): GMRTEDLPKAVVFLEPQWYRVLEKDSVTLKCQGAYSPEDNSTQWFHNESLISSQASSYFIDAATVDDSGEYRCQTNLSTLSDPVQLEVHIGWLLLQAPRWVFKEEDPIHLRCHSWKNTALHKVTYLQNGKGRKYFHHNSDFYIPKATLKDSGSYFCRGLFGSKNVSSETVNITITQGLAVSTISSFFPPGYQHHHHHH

He/Con 3a	Binder
67.9 % of GpH7-A5/GpH7-B3/GpL16-k0	GpH7-A5/GpH7-B3 variant Y296_18N/GpL16-k0 (antibody, human IgG1, kappa, copies: 1 + 1 + 2) heavy 1: not shown heavy 2: not shown light: DIVMTQSPLSLPVTPGEPASISCQASESLVHSNRNTYLHWYLQKPGQSPQLLIYKVSNRFSGVPDRFSGSGSGTDFTLKISRVEAEDVGVYYCSQNTHVPPTFGQGTKVEIERTVAAPSVFIFPPSDEQLKSGTASVVCLLNNFYPREAKVQWKVDNALQSGNSQESVTEQDSKDSTYSLSSTLTLSKADYEKHKVYACEVTHQGLSSPVTKSFNRGEC
83.8 % of GpH7-A5/GpH7-B3/GpL16-k0	GpH7-A5/GpH7-B3 variant Y300_03V/GpL16-k0 (antibody, human IgG1, kappa, copies: 1 + 1 + 2) heavy 1: not shown heavy 2: not shown light: DIVMTQSPLSLPVTPGEPASISCQASESLVHSNRNTYLHWYLQKPGQSPQLLIYKVSNRFSGVPDRFSGSGSGTDFTLKISRVEAEDVGVYYCSQNTHVPPTFGQGTKVEIERTVAAPSVFIFPPSDEQLKSGTASVVCLLNNFYPREAKVQWKVDNALQSGNSQESVTEQDSKDSTYSLSSTLTLSKADYEKHKVYACEVTHQGLSSPVTKSFNRGEC
100 % of GpH7-A5/GpH7-B3/GpL16-k0	GpH7-A5/GpH7-B3 variant Y300_04F/GpL16-k0 (antibody, human IgG1, kappa, copies: 1 + 1 + 2) heavy 1: not shown heavy 2: not shown light: DIVMTQSPLSLPVTPGEPASISCQASESLVHSNRNTYLHWYLQKPGQSPQLLIYKVSNRFSGVPDRFSGSGSGTDFTLKISRVEAEDVGVYYCSQNTHVPPTFGQGTKVEIERTVAAPSVFIFPPSDEQLKSGTASVVCLLNNFYPREAKVQWKVDNALQSGNSQESVTEQDSKDSTYSLSSTLTLSKADYEKHKVYACEVTHQGLSSPVTKSFNRGEC
60.7 % of GpH7-A5/GpH7-B3/GpL16-k0	GpH7-A5/GpH7-B3 variant Y296_14T/GpL16-k0 (antibody, human IgG1, kappa, copies: 1 + 1 + 2) heavy 1: not shown heavy 2: not shown light: DIVMTQSPLSLPVTPGEPASISCQASESLVHSNRNTYLHWYLQKPGQSPQLLIYKVSNRFSGVPDRFSGSGSGTDFTLKISRVEAEDVGVYYCSQNTHVPPTFGQGTKVEIERTVAAPSVFIFPPSDEQLKSGTASVVCLLNNFYPREAKVQWKVDNALQSGNSQESVTEQDSKDSTYSLSSTLTLSKADYEKHKVYACEVTHQGLSSPVTKSFNRGEC
88.1 % of GpH7-A5/GpH7-B3/GpL16-k0	GpH7-A5/GpH7-B3 variant Y300_02A/GpL16-k0 (antibody, human IgG1, kappa, copies: 1 + 1 + 2) heavy 1: not shown heavy 2: not shown light: DIVMTQSPLSLPVTPGEPASISCQASESLVHSNRNTYLHWYLQKPGQSPQLLIYKVSNRFSGVPDRFSGSGSGTDFTLKISRVEAEDVGVYYCSQNTHVPPTFGQGTKVEIERTVAAPSVFIFPPSDEQLKSGTASVVCLLNNFYPREAKVQWKVDNALQSGNSQESVTEQDSKDSTYSLSSTLTLSKADYEKHKVYACEVTHQGLSSPVTKSFNRGEC

More lines, now with the values behind:

Binder	He/Con 3a
GpH7-A5/GpH7-B3 variant Y296_07I/GpL16-k0 (antibody, human IgG1, kappa, copies: 1 + 1 + 2) heavy 1: not shown heavy 2: not shown light: DIVMTQSPLSLPVTPGEPASISCQASESLVHSNRNTYLHWYLQKPGQSPQLLIYKVSNRFSGVPDRFSGSGSGTDFTLKISRVEAEDVGVYYCSQNTHVPPTFGQGTKVEIERTVAAPSVFIFPPSDEQLKSGTASVVCLLNNFYPREAKVQWKVDNALQSGNSQESVTEQDSKDSTYSLSSTLTLSKADYEKHKVYACEVTHQGLSSPVTKSFNRGEC	75.8 % of GpH7-A5/GpH7-B3/GpL16-k0
GpH7-A5/GpH7-B3 variant Y296_08L/GpL16-k0 (antibody, human IgG1, kappa, copies: 1 + 1 + 2) heavy 1: not shown heavy 2: not shown light: DIVMTQSPLSLPVTPGEPASISCQASESLVHSNRNTYLHWYLQKPGQSPQLLIYKVSNRFSGVPDRFSGSGSGTDFTLKISRVEAEDVGVYYCSQNTHVPPTFGQGTKVEIERTVAAPSVFIFPPSDEQLKSGTASVVCLLNNFYPREAKVQWKVDNALQSGNSQESVTEQDSKDSTYSLSSTLTLSKADYEKHKVYACEVTHQGLSSPVTKSFNRGEC	72.4 % of GpH7-A5/GpH7-B3/GpL16-k0
GpH7-A5/GpH7-B3 variant Y296_09D/GpL16-k0 (antibody, human IgG1, kappa, copies: 1 + 1 + 2) heavy 1: not shown heavy 2: not shown light: DIVMTQSPLSLPVTPGEPASISCQASESLVHSNRNTYLHWYLQKPGQSPQLLIYKVSNRFSGVPDRFSGSGSGTDFTLKISRVEAEDVGVYYCSQNTHVPPTFGQGTKVEIERTVAAPSVFIFPPSDEQLKSGTASVVCLLNNFYPREAKVQWKVDNALQSGNSQESVTEQDSKDSTYSLSSTLTLSKADYEKHKVYACEVTHQGLSSPVTKSFNRGEC	89 % of GpH7-A5/GpH7-B3/GpL16-k0
GpH7-A5/GpH7-B3 variant Y296_04F/GpL16-k0 (antibody, human IgG1, kappa, copies: 1 + 1 + 2) heavy 1: not shown heavy 2: not shown light: DIVMTQSPLSLPVTPGEPASISCQASESLVHSNRNTYLHWYLQKPGQSPQLLIYKVSNRFSGVPDRFSGSGSGTDFTLKISRVEAEDVGVYYCSQNTHVPPTFGQGTKVEIERTVAAPSVFIFPPSDEQLKSGTASVVCLLNNFYPREAKVQWKVDNALQSGNSQESVTEQDSKDSTYSLSSTLTLSKADYEKHKVYACEVTHQGLSSPVTKSFNRGEC	79.5 % of GpH7-A5/GpH7-B3/GpL16-k0
GpH7-A5/GpH7-B3 variant Y296_11K/GpL16-k0 (antibody, human IgG1, kappa, copies: 1 + 1 + 2) heavy 1: not shown heavy 2: not shown light: DIVMTQSPLSLPVTPGEPASISCQASESLVHSNRNTYLHWYLQKPGQSPQLLIYKVSNRFSGVPDRFSGSGSGTDFTLKISRVEAEDVGVYYCSQNTHVPPTFGQGTKVEIERTVAAPSVFIFPPSDEQLKSGTASVVCLLNNFYPREAKVQWKVDNALQSGNSQESVTEQDSKDSTYSLSSTLTLSKADYEKHKVYACEVTHQGLSSPVTKSFNRGEC	53.3 % of GpH7-A5/GpH7-B3/GpL16-k0
GpH7-A5/GpH7-B3 variant Y296_12R/GpL16-k0 (antibody, human IgG1, kappa, copies: 1 + 1 + 2) heavy 1: not shown heavy 2: not shown light: DIVMTQSPLSLPVTPGEPASISCQASESLVHSNRNTYLHWYLQKPGQSPQLLIYKVSNRFSGVPDRFSGSGSGTDFTLKISRVEAEDVGVYYCSQNTHVPPTFGQGTKVEIERTVAAPSVFIFPPSDEQLKSGTASVVCLLNNFYPREAKVQWKVDNALQSGNSQESVTEQDSKDSTYSLSSTLTLSKADYEKHKVYACEVTHQGLSSPVTKSFNRGEC	66.5 % of GpH7-A5/GpH7-B3/GpL16-k0
GpH7-A5/GpH7-B3 variant Y296_10E/GpL16-k0 (antibody, human IgG1, kappa, copies: 1 + 1 + 2) heavy 1: not shown heavy 2: not shown light: DIVMTQSPLSLPVTPGEPASISCQASESLVHSNRNTYLHWYLQKPGQSPQLLIYKVSNRFSGVPDRFSGSGSGTDFTLKISRVEAEDVGVYYCSQNTHVPPTFGQGTKVEIERTVAAPSVFIFPPSDEQLKSGTASVVCLLNNFYPREAKVQWKVDNALQSGNSQESVTEQDSKDSTYSLSSTLTLSKADYEKHKVYACEVTHQGLSSPVTKSFNRGEC	76.8 % of GpH7-A5/GpH7-B3/GpL16-k0
